Source: paper PMC4466236, “A Novel AT-Rich DNA Recognition Mechanism for Bacterial Xenogeneic Silencer MvaT”
Residue numbers refer to the chain shown, from its start.

T1: MvaT (Pseudomonas aeruginosa PAO1) (UniProt Q9HW86)
T1 sequence: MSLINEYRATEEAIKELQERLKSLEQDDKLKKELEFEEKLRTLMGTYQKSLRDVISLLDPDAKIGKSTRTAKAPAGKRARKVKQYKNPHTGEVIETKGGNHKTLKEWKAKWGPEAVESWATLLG

T2: MvaT full-length (Pseudomonas aeruginosa PAO1?) (UniProt Q9HW86)
T2 sequence: T1 sequence

T3: MvaTctd WT (Pseudomonas aeruginosa PAO1, UniProt Q9HW86 77-124)
T3 chain: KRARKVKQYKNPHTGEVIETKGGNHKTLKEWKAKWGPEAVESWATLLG

T4: MvaTctd K108A (Pseudomonas aeruginosa PAO1, UniProt Q9HW86 77-124, K108A)
T4 chain: T3 chain with K32A

T5: MvaTctd K102A (Pseudomonas aeruginosa PAO1, UniProt Q9HW86 77-124, K102A)
T5 chain: T3 chain with K26A

T6: MvaTctd R80A (Pseudomonas aeruginosa PAO1, UniProt Q9HW86 77-124, R80A)
T6 chain: T3 chain with R4A

T7: MvaTctd N100A (Pseudomonas aeruginosa PAO1, UniProt Q9HW86 77-124, N100A)
T7 chain: T3 chain with N24A

T8: MvaTctd K105A (Pseudomonas aeruginosa PAO1, UniProt Q9HW86 77-124, K105A)
T8 chain: T3 chain with K29A

T9: MvaTctd K97A (Pseudomonas aeruginosa PAO1, UniProt Q9HW86 77-124, K97A)
T9 chain: T3 chain with K21A

T10: MvaTctd K81A (Pseudomonas aeruginosa PAO1, UniProt Q9HW86 77-124, K81A)
T10 chain: T3 chain with K5A

B1: 3AT (dsDNA)
DNA 1: CGCATATATGCG
DNA 2: CGCATATATGCG
B2: GC-rich d(CGCGCGCG)2 (dsDNA)
DNA 1: CGCGCGCG
DNA 2: CGCGCGCG

Key:
[1] = target: T1, MvaT (Pseudomonas aeruginosa PAO1)
[2] = target: T2, MvaT full-length (Pseudomonas aeruginosa PAO1?); assay: EMSA; settings: EMSA: 8 mM Tris pH 8.0, 15 mM HEPES pH 7.9, 40 mM NaCl, 40 mM KCl, 1.4 mM EDTA, 0.5 mM DTT, 9.95% glycerol, room temp, NMR: 50 mM Na phosphate, 50 mM NaCl
[3] = system: MvaT full-length (Pseudomonas aeruginosa PAO1?); assay: EMSA; settings: EMSA: 8 mM Tris pH 8.0, 15 mM HEPES pH 7.9, 40 mM NaCl, 40 mM KCl, 1.4 mM EDTA, 0.5 mM DTT, 9.95% glycerol, room temp, NMR: 50 mM Na phosphate, 50 mM NaCl
[4] = system: MvaT full-length (Pseudomonas aeruginosa PAO1?); assay: competition; settings: EMSA: 8 mM Tris pH 8.0, 15 mM HEPES pH 7.9, 40 mM NaCl, 40 mM KCl, 1.4 mM EDTA, 0.5 mM DTT, 9.95% glycerol, room temp, NMR: 50 mM Na phosphate, 50 mM NaCl
MvaTctd WT = target: T3, MvaTctd WT; assay: ITC; 283 K; EMSA: 8 mM Tris pH 8.0, 15 mM HEPES pH 7.9, 40 mM NaCl, 40 mM KCl, 1.4 mM EDTA, 0.5 mM DTT, 9.95% glycerol, room temp; NMR: 50 mM Na phosphate, 50 mM NaCl, pH 6.0, 298 K; ITC: 283 K, 0.15 mM DNA in cell, buffer not stated (protein purified in NMR buffer); settings: protein: recombinant; tags: C-terminal His6; blunt, self-complementary
MvaTctd K108A = target: T4, MvaTctd K108A; assay: as above; settings: protein: recombinant; tags: C-terminal His6; blunt, self-complementary
MvaTctd K102A = target: T5, MvaTctd K102A; assay: ITC; 283 K; slightly lower affinity, Kd +70%; EMSA: 8 mM Tris pH 8.0, 15 mM HEPES pH 7.9, 40 mM NaCl, 40 mM KCl, 1.4 mM EDTA, 0.5 mM DTT, 9.95% glycerol, room temp; NMR: 50 mM Na phosphate, 50 mM NaCl, pH 6.0, 298 K; ITC: 283 K, 0.15 mM DNA in cell, buffer not stated (protein purified in NMR buffer); settings: protein: recombinant; tags: C-terminal His6; blunt, self-complementary
MvaTctd R80A = target: T6, MvaTctd R80A; assay: ITC; 283 K; EMSA: 8 mM Tris pH 8.0, 15 mM HEPES pH 7.9, 40 mM NaCl, 40 mM KCl, 1.4 mM EDTA, 0.5 mM DTT, 9.95% glycerol, room temp; NMR: 50 mM Na phosphate, 50 mM NaCl, pH 6.0, 298 K; ITC: 283 K, 0.15 mM DNA in cell, buffer not stated (protein purified in NMR buffer); settings: protein: recombinant; tags: C-terminal His6; blunt, self-complementary
MvaTctd N100A = target: T7, MvaTctd N100A; assay: as above; settings: protein: recombinant; tags: C-terminal His6; blunt, self-complementary
MvaTctd K105A = target: T8, MvaTctd K105A; assay: as above; settings: protein: recombinant; tags: C-terminal His6; blunt, self-complementary
MvaTctd K97A = target: T9, MvaTctd K97A; assay: NMR titration; similar to WT; EMSA: 8 mM Tris pH 8.0, 15 mM HEPES pH 7.9, 40 mM NaCl, 40 mM KCl, 1.4 mM EDTA, 0.5 mM DTT, 9.95% glycerol, room temp; NMR: 50 mM Na phosphate, 50 mM NaCl, pH 6.0, 298 K; ITC: 283 K, 0.15 mM DNA in cell, buffer not stated (protein purified in NMR buffer); settings: protein: recombinant; tags: C-terminal His6; blunt, self-complementary
MvaTctd K81A = target: T10, MvaTctd K81A; assay: as above; settings: protein: recombinant; tags: C-terminal His6; blunt, self-complementary

Molecule | binding signal (PBM E-score (-0.5 to 0.5)) [1] | also measured
AAATATAT (double strand) [8-mer AAATATAT] | 0.482 | 
AATATATA (double strand) [8-mer AATATATA] | 0.486 | 
AATATATT (double strand) [8-mer AATATATT] | 0.485 | 
AATATTAA (double strand) [8-mer AATATTAA] | 0.478 | 
ATATAATA (double strand) [8-mer ATATAATA] | 0.484 | 
ATATATAA (double strand) [8-mer ATATATAA] | 0.487 | 
ATATATAT (double strand) [8-mer ATATATAT] | 0.491 | 
ATATATTA (double strand) [8-mer ATATATTA] | 0.489 | 
ATATTAAT (double strand) [8-mer ATATTAAT] | 0.484 | 
CCGCAGGTGGCTGAACAGGCCGTGCGCTGGCTGGTCGAGCTGCAGGGCGGCGCCGACGACGAACGCCTGCGCCAGGCCTGGCAGCGCTGGCGCCAGGCGGCCCCGGAACACGAGCAGGCCTGGCGCCACATCGAGGCGGTCAACCAGCGCCTGGCCGGGATAGGCACGCCACTGGCCCTGGCCGCCATCAACGCACCGCATTCG (double strand) [PA3900 204 bp fragment] |  | Kd [2]: 0.154 µM
PA3900 204 bp fragment |  | Kd ([3]; apparent Kd): 0.154 µM
PA3900 204 bp fragment, unlabeled |  | binding (fold molar excess) [4]: > 200
TATATATA (double strand) [8-mer TATATATA] | 0.493 | 
TATATTAA (double strand) [8-mer TATATTAA] | 0.482 | 
TATTAATA (double strand) [8-mer TATTAATA] | 0.481 | 
TATTATAA (double strand) [8-mer TATTATAA] | 0.48 | 
TTAATTAA (double strand) [8-mer TTAATTAA] | 0.481 | 
TTATATAA (double strand) [8-mer TTATATAA] | 0.483 | 
cupA1 promoter 340 bp |  | Kd [3]: 0.057 µM
B1 |  | Kd (MvaTctd WT): ~10.7 µM; binding signal (MvaTctd K108A): > 10 fold Kd increase vs WT; binding signal (MvaTctd K102A): ~1.7 fold Kd increase vs WT; binding signal (MvaTctd R80A): > 10 fold Kd increase vs WT; binding signal (MvaTctd N100A): > 3 fold Kd increase vs WT; binding signal (MvaTctd K105A): > 3 fold Kd increase vs WT; binding result (MvaTctd K97A): binds; binding result (MvaTctd K81A): binds
B2 |  | Kd (MvaTctd WT): ~360 µM
